The values that follow come from patent publication US20140056908.

For this data set, the target named is T1, malaria vaccine candidate protein Pfs48 with PR-1a signal peptide, 6xHis tag and KDEL.
T1 chain: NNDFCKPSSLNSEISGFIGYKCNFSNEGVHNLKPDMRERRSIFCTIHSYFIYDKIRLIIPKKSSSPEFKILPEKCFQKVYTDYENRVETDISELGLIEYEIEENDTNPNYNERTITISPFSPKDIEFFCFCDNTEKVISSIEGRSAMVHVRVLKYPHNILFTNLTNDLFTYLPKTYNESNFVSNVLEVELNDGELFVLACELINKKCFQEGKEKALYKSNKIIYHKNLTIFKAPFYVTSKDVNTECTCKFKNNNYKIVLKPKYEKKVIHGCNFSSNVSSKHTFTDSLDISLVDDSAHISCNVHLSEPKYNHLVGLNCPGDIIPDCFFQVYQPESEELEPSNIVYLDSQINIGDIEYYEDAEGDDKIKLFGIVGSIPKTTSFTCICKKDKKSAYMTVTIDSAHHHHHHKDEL

B1: endoglycosidase F from Elizabethkingia meningoseptica (PNGaseF) with PR-1a signal peptide, FLAG tag and KDEL (protein)
chain: APADNTVNIKTFDKVKNAFGDGLSQSAEGTFTFPADVTTVKTIKMFIKNECPNKTCDEWDRYANVYVKNKTTGEWYEIGRFITPYWVGTEKLPRGLEIDVTDFKSLLSGNTELKIYTETCLAKGREYSVDFDIVYGTPDYKYSAVVPVIQYNKSSIDGVPYGKAHTLGLKKNIQLPTNTEKAYLRTTISGWGHAKPYDAGSRGCAEWCFRTHTIAINNANTFQHQLGALGCSANPINNQSPGNWAPDRAGWCPGMAVPTRIDVLNNSLTGSTFSYEYKFQSWTNNGTNGDAFYAISSFVIAKSNTPISAPVVTNDYKDDDDKDEL
As for B1, the “electrophoretic mobility of Pfs48 on Western blot (deglycosylation on co-expression in planta)” value was “the electrophoretic mobility of the glycosylated Pfs48 (control, which was expressed w/o PNGaseF) was different (less mobility) compared to the non-glycosylated form of Pfs48 that was co-expressed with PNGaseF”.
